Data from publication PMC4383501, “Computational Selection of RNA Aptamer against Angiopoietin-2 and Experimental Evaluation”.

Tests used:
[1] = molecular target: T1, Angiopoietin-2 (Ang2), active human (human, UniProt O15123 19-496); test: SPR; kon 4.07e3 M-1s-1; koff 0.79e-3 s-1; SPR imaging, biotinylated RNA on streptavidin/BAT-PEG chip, 0.5 uM Ang2 in TBS pH 7.4, 9 min association, 6 min TBS rinse; temperature not stated; settings: protein: commercial; label: 5' biotin; single strand
[2] = molecular target: T1, Angiopoietin-2 (Ang2), active human; test: SPR; kon 10.02e3 M-1s-1; koff 1.39e-3 s-1; SPR imaging, biotinylated RNA on streptavidin/BAT-PEG chip, 0.5 uM Ang2 in TBS pH 7.4, 9 min association, 6 min TBS rinse; temperature not stated; settings: protein: commercial; label: 5' biotin; single strand
Angiopoietin-2 (human) = Angiopoietin-2 (human) (Homo sapiens (Human), UniProt O15123 19-496); test: SPR; TBS pH 7.4, 25 C; settings: label: 5'-biotin (5'-A5 is a spacer)
Angiopoietin-2 (human), sequence (O15123 19-496): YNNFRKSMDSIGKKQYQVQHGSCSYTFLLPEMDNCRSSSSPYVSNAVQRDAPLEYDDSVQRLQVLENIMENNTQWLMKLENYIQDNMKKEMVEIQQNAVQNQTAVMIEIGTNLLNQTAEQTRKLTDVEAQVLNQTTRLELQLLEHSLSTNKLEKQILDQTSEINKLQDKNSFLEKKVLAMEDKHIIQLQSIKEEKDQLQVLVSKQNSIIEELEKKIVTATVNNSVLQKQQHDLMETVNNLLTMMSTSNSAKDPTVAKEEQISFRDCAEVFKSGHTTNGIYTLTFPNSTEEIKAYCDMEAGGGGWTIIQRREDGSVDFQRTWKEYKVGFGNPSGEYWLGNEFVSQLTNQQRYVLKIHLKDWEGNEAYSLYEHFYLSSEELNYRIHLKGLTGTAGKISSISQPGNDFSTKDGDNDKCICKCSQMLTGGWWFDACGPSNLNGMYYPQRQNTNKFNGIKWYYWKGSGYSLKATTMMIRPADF

[3] = molecular target: T1, Angiopoietin-2 (Ang2), active human; test: SPR; kon 6.03e3 M-1s-1; koff 0.61e-3 s-1; SPR imaging, biotinylated RNA on streptavidin/BAT-PEG chip, 0.5 uM Ang2 in TBS pH 7.4, 9 min association, 6 min TBS rinse; temperature not stated; settings: protein: commercial; label: 5' biotin; single strand
[4] = molecular target: T1, Angiopoietin-2 (Ang2), active human; test: SPR; kon 8.22e3 M-1s-1; koff 0.97e-3 s-1; SPR imaging, biotinylated RNA on streptavidin/BAT-PEG chip, 0.5 uM Ang2 in TBS pH 7.4, 9 min association, 6 min TBS rinse; temperature not stated; settings: protein: commercial; label: 5' biotin; single strand
[5] = molecular target: T1, Angiopoietin-2 (Ang2), active human; test: SPR; kon 1.66e3 M-1s-1; koff 4.99e-3 s-1; described as very weak, partly nonspecific adsorption; SPR imaging, biotinylated RNA on streptavidin/BAT-PEG chip, 0.5 uM Ang2 in TBS pH 7.4, 9 min association, 6 min TBS rinse; temperature not stated; settings: protein: commercial; label: 5' biotin; single strand

T1 sequence (O15123 19-496): as above

B1: Seq2_12_35 (biotin-A5) (ssRNA)
RNA: AAAAAUUAACCAUCAGAUCAUGGCCCCUGCCCUCUCAAGCACCAC
Ka [1]: 5.15 10^6 M^-1

B2: Seq1 (biotin-A5) (ssRNA)
RNA: AAAAAACUAGCCUCAUCAGCUCAUGUGCCCCUCCGCCUGGAUCAC
Ka [2]: 7.23 10^6 M^-1

B3: Seq1 (ssRNA)
RNA: AAAAAACUAGCCUCAUCAGCUCAUGUGCCCCUCCGCCUGGAUCAC
Kd (Angiopoietin-2 (human)): 0.138 µM

B4: Seq15_12_35 (biotin-A5) (ssRNA)
RNA: AAAAAGAGGACGAUGCCGACUAGCCUCAUCAGCUCAUGUCCCCCUC
Ka [3]: 9.89 10^6 M^-1

B5: Seq15_15_38 (biotin-A5) (ssRNA)
RNA: AAAAAGAGGACGAUGCGGAUUAGCCUCAUCAGCUCAUGUGCCGCUC
Ka [4]: 8.47 10^6 M^-1

B6: Seq16 (biotin-A5), Ang1-specific aptamer (ssRNA)
RNA: AAAAAACUCGAACAUUUCCACUAACCAACCAUACUAAAGCACCGC
Ka [5]: 0.33 10^6 M^-1

B7: Seq16 (Ang1 aptamer / negative control) (ssRNA)
RNA: AAAAAACUCGAACAUUUCCACUAACCAACCAUACUAAAGCACCGC
Kd (Angiopoietin-2 (human)): 3.03 µM
